Test results reported in patent US20220249633A1.

Biological target: HLA-A*24 (human)
Test: UV-exchange ELISA, exchange yield grade

peptide exchange yield: 50 to 75%
Binder: IYGEKTYAF [… (SEQ ID NO: 388)]
